From patent publication US20220073643A1
Changes are numbered by the printed parent chain.

B1: 194A2F7 (antibody, V domains shown)
VH: QIQLVQSGPELKKPGETVKISCKASGYTFTDYLIHWVKQAPGKGLKWMGWINTETGEPTYADDFKGRFALSLETSASTACLQINNLKNEDTATYFCARIYYGNSFDYWGQGTTLTVSS
VL: DIVMTQSPSSLPVTAGEKVTMTCKSSQNLLNSGNQKSYLTWYQQKPGQPPKLLIYWASTRETGVPDRFTGSGSGTDFTLTISSVQAEDLAVYYCQNAYRFPFTFGAGTRLELK
B2: 246B5F2 (antibody, IgM, V domains shown)
VH: EVMLVESGGGLMKPGGSLKLSCAASEFTFSNYAMSWVRQTPEKRLEWVATISSGRSSTYYPDSVKGRFTISRDNAKNTLYLQMSSLRSEDTAMYYCAGLGRGNAMEYWGQGTSVTVSS
VL: DIVMTQSPSSLTVTAGEKVTLSCKSSQSLLNSGNQKNYLTWYQQKPGQPPKLLIYWASTRESGVPDRFTGSGSGTDFILTINSVQAEDLAVYYCQNAYSYPFTFGSGTKLEIK
B3: 252C10F6 (antibody, V domains shown)
VH: QVHLKQSGRGLVQPSQSLSITCTVSGFSLPNYGVHWVRQPPGKGLEWLGVIWSGGNTDYNTVFKARLSITKDNSKSQVFFKMNSLQADDTAIYYCARNLYGNYDYAMDYWGQGTSVTVSS
VL: DIVMTQSPATLSVTPGDRVSLSCRASQSISDYLHWYQQKSHESPRLLIKYASQSISGIPSRFSGSGSGSEFTLSINSVEPEDVGVYYCQNGHSFPFTFGSGTKLEIK
B4: 185F2G12 (antibody, V domains shown)
VH: QAYLQQSGAELVRSGASVKMSCKASGYTFTSYNMHWVRQTPGQGLEWIGYIYPGNGGTNYSQKFKGKASLTADTSSTTAYMQISSLTSEDSAVYFCATGRGFAYWGQGTLVTVSA
VL: DIVMTQSPSSLTVTAGEKVTLSCKSSQSLFNTGNQKNYLTWYQQKPGQPPKLLIFRASTRESGVPDRFTGSGFGTDFTLTISSVQAEDLAVYYCQNDFSYPLTFGAGTKLELK
B5: 234C9G5 (antibody, V domains shown)
VH: QAYLQQSGAELVRSGASVKMSCKASGYAFTSHNMHWVKQTPGQGLEWIGYISPGNGYTNYNQKFRGKATLTADTSSSTAYMQIGSLTSEDSAVYFCTRDYYGNSFAYWGQGTLVTVSA
VL: DIVMTQSPSSLTEKAGERVSMSCKSSQSLFNSGNQKNYLTWYQQKPGQPPKLLIYWASTRESGVPDRFTGSGSGTDFTLTISSVQAEDLAVYYCQNNYWFPFTFGAGTKLELK
B6: 242H12D6 (antibody, V domains shown)
VH: B5 VH with A28T, S52Y, Y57G, R65K, G84N
VL: B5 VL with N97D, W99R, F100Y
B7: 258D11C4 (antibody, V domains shown)
VH: B5 VH with A28T, T30S, S52Y, Y57G, R65K, G84S
VL: B5 VL with E61Q, N97D
B8: 241H10A1 (antibody, V domains shown)
VH: QVQLQQSGAELVKPGASVKLSCKASGYTFTSFGINWLRQRPEQGLEWIGWIFPGDGNSKYNENFKGKATLTTDKSSSTAYMQVTRLTSEDSAVYFCARFYYGNSFANWGQGTLVTVSA
VL: B2 VL with L21M, S58A, I78T, N82S, A97D, S99F, S106G, I112L
B9: 257G7B9 (antibody, V domains shown)
VH: B5 VH with A28T, M34L, S52Y, Y57N, R65K, G84S
VL: B5 VL
B10: 234E1F12 (antibody, V domains shown)
VH: B5 VH with A28T, G42R, S52Y, Y57D, R65K, G84S
VL: B5 VL with N97A, F100Y
B11: 252F1B10 (antibody, V domains shown)
VH: B5 VH with A28T, S52Y, Y57G, R65K, G84N
VL: B5 VL with N97D, W99R, F100Y
B12: 257B1G9 (antibody, V domains shown)
VH: B5 VH with A28T, S52Y, Y57G, R65K, G84S
VL: B5 VL with K14R, N97D, W99R, F100Y
B13: 257G7F7 (antibody, V domains shown)
VH: B5 VH with A28T, M34L, S52Y, Y57N, R65K, G84S
VL: B5 VL
B14: 260G9E8 (antibody, V domains shown)
VH: B5 VH with Y3D, A28T, T30A, S52Y, Y57G, N59K, R65T, G84T, T97A
VL: B5 VL with R18K, S22R, F30L, E87D, N97D, W99M
B15: 235A10C9 (antibody, V domains shown)
VH: B5 VH with A28T, T30A, S52Y, G56S, Y57G, N59K, R65T, G84T, T97A
VL: B5 VL with R18K, S22R, F30L, E87D, N97D, W99M
B16: 252E7C9 (antibody, V domains shown)
VH: QTYLQQSGAELVRSGASVKMSCRTSGYSFTSHNMHWVKQTPGQGLEWIGYIYPGNGGSYYNQKFKGKAILTADTSSSTAYMQISSLTSEDSAVYFCTRDYYGNSFVYWGQGTLVTVSA
VL: B5 VL with I2V, A15T, R18K, F30L, V84L, A86T, V91I, Y98F, W99R, F100Y
B17: 262H9H6 (antibody, V domains shown)
VH: B5 VH with A28T, G84S, A106T
VL: B5 VL with D76E
B18: 243F6D2 (antibody, V domains shown)
VH: B16 VH with T2A, T24A, S28T, S58T, I69T, T97A
VL: B5 VL with I2V, A15T, R18K, F30L, V84L, A86T, W99R, F100Y
B19: 260F8A6 (antibody, V domains shown)
VH: B16 VH with T2A, T24A, S28T, G57N, S58T, I69T, S77N, S84N, T97V
VL: B5 VL with I2V, A15T, R18K, F30L, T69I, V84L, A86T, W99M, F100Y
B20: 240D6F5 (antibody, V domains shown)
VH: B5 VH with A28T, S52Y, Y57G, R65K, T74P, G84N
VL: B5 VL with N97D, W99R, F100Y
B21: 256C3D3 (antibody, V domains shown)
VH: B5 VH
VL: B5 VL
B22: 243B4F2 (antibody, V domains shown)
VH: B5 VH with A28T, M34L, S52Y, Y57N, R65K, G84S
VL: B5 VL
B23: 257F1E11 (antibody, V domains shown)
VH: B5 VH with A28T, M34I, G42R, S52Y, Y57G, R65K, G84S
VL: B5 VL with V91I, N97D, F100Y
B24: 240A8E7 (antibody, V domains shown)
VH: QAYLQQSGAELVRSGASVKMSCKASGYTFTNYNIHWVKQTPGQGLEWIGYIYPGNGDNYYNQKFKGKATLTADTSSSTAYMQISSLTSEDSAVYFCARDYYGNSFAYWGQGTLVTVSA
VL: DVVMTQSPSSLTVTAGEKVTMNCKSSQSLLNSGNQKNYLTWYQQKPGQPPKMLIYWASTRESGVPDRFTGSGSGTDFTLTISSVQAEDLAIYYCQNDYYYPFTFGAGTKLELK
B25: 186F7E10 (antibody, V domains shown)
VH: EVMLVESGGGLVKPGGSLKLSCAASRFTLNSYAMSWIRQTPEKKLEWVATITSGVSHTYYFDSVKGRFTISRDTAKNTLNLQMNSLRSEDTAVYYCARLYYGNSLDYWGQGTSVTVSS
VL: B2 VL with L21V, I78T, N82S, A86S, A97N, S99I, F102L, S106A, K109T, I112L
B26: 254A8D5 (antibody, V domains shown)
VH: EVMLVESGGGLVKPGGSLKLSCAASGFTFSSYTVSWVRQTPEKRLEWVATSIVGSTYTYFPDSVKGRFTISRDFAKNTLFLQMSSLRSEDTAMYYCSRLGRGNAMDYWGQGTSVSVSS
VL: B2 VL with S22N, K24R, I78T, N82S, E87D, A97G
B27: 242F5H2 (antibody, V domains shown)
VH: B26 VH
VL: B2 VL with S22N, K24R, I78T, N82S, E87D, A97G
B28: 259B4D4 (antibody, V domains shown)
VH: EIQLQQSGPELMKPGASVRISCKASGYSFTSYYMHWMKQSHVKSLEWIGYIDPFNGNTRYNQKFKDKATLTVDKSSTTAYMHLSSLTSEDSAVYFCASLRFFAYWGQGTLVTVSA
VL: DIVMTQSPSSLTVTAGEKVTMSCNSSQSLLNSGNQKNYLTWYQQKPGQPPKLLIYWASSRESGVPDRFTGSGSGTDFTLTISTVQAEDLAVYYCQNDYSFPLTFGAGTRLELK
B29: 248E6A7 (antibody, V domains shown)
VH: B16 VH with T2A, T24A, S28T, G57N, S58T, G66V, I69T, S77N, S84N, T97V
VL: DVVMTQSPSSLTEKTGEKVTMTCKSSQSLLNSGNQKNYLAWYQQKPGQPPKLLIYWASTRESGVPDRFIGSGSGTDFTLTISSLQTEDLAVYYCQNNYMYPFTFGAGTKLELK

Molecular target: Claudin18.2-His protein (human)
Test: indirect ELISA on coated Claudin18.2-His

Binder	EC50 [µg/mL]
B1	0.0438
B2	0.141
B3	1.66
B4	0.0193
B5	0.0387
B6	0.0164
B7	0.0153
B8	0.0221
B9	0.00978
B10	0.105
B11	0.00723
B12	0.00793
B13	0.0198
B14	0.0358
B15	0.0355
B16	0.00869
B17	0.014
B18	0.0346
B19	0.0151
B20	0.00792
B21	0.0133
B22	0.0125
B23	0.0262
B24	0.0145
B25	0.0109
B26	0.0252
B27	0.0193
B28	0.0197
B29	0.00969
